Data: the DeepSol protein solubility set

Test: soluble on expression in E. coli; label from the status in PepcDB or PDB records

Sequence	soluble on expression in E. coli
KKLNDFQEDAVNTILYSNKRKFLIHGVTGSGKTEIYMHLVKKMIEDNKQSIILVPEISLTPQMIERFKGRFGLNVAVFHSKLSDGERYDEWIRVKNGEVKVAVGARSALFLPFDKLGLIVIDEEHEGSYKSESDPKYNAIEVAEMKSAIEDCILVLGSATP	not soluble
MGSDKIHHHHHHMPALCSTVQTLEKLAKDDVSSLALLGRSVMHDNALTSRILRVANSAIYHKGSTQISTVSRAAIVLGFDAVRNICITAQLLSSLLESKNLAPSVYQRLIKLMAKAFQAAMLTRMMLSDYDDDIQEEAFIACLLFHIGESAFWSIGGEFTETLDSQLTECETSADERSLIRETIGTSFSQLTQSIARHWGLGELLIQAVNYPDDPRPEIRSIFLADKLCDTLSVATPDKNDLEKYINQAANFTGLDETEFTLKMQRCTKATHKLAEAYGAKVLIDYLPDPQRIDKLEPYLPEAELPIFEANLNVQLVKLRELTAFAINKADFNQIMQTVLEGILEGVGVDRCGVLLLSPSRKQLQPRIMLGRDAEEMKRQFIIELGDRKGLFPMAMEHKESLWVDSPCAKKWQEQCRELKVQLPESGFLVAPLLVDNKVIGFYYADRGPSERCFAEVDFQAFIHFSQLANVCFTVSLK	not soluble
MSLKHLTEMVRQHKAGKTNGIYAVCSAHPLVLEAAIRYASANQTPLLIEATSNQVDQFGGYTGMTPADFRGFVCQLADSLNFPQDALILGGDHLGPNRWQNLPAAQAMANADDLIKSYVAAGFKKIHLDCSMSCQDDPIPLTDDIVAERAARLAKVAEETCLEHFGEADLEYVIGTEVPVPGGAHETLSELAVTTPDAARATLEAHRHAFEKQGLNAIWPRIIALVVQPGVEFDHTNVIDYQPAKASALSQMVENYETLIFEAHSTDYQTPQSLRQLVIDHFAILKVGPALTFALREALFSLAAIEEELVPAKACSGLRQVLEDVMLDRPEYWQSHYHGDGNARRLARGYSYSDRVRYYWPDSQIDDAFAHLVRNLADSPIPLPLISQYLPLQYVKVRSGELQPTPRELIINHIQDILAQYHTACEGQEGHHHHHH	soluble
MGHHHHHHSHMKVGKNNFRPPPKVESSVVRIEPKNPPPPINFQEWDGLVRITFVRKNKTLSAAFKSSAVQQLLEKNYRIHCSVHNIIIPEDFSIADKIQQILTSTGFSDKRARSMDIDDFIRLLHGFNAEGIHFS	not soluble
MAHHHHHHMAPQFYLGLQMSAIIAAIPDITRAHSAVEVSEMTDLLRAGVTPYARMLDDEDFNEEFVFGMYGMALDSWQRASYEEMTKKYHLALTAIHEAINPPFKLEHFQRITRLVLARAEHVPPADYYSGHLFLRRLRRRWRRLRKIPEPAQVALVPYVDLVNHSNRPNCTIRIGPSSVLSGESAITLFTLRDVLPGQELCRHYNFALNRASALFRYGFLPFDLISIVEHDAVDEHVMKSRDMFRAVSEEQLEHQRREAEEVARLEKLFQDAKQSHGGSGAAASTPPGRQPNPSLSDRVSRREE	not soluble
MKLIPFPYPLNIGTDVVHLPRILRLINRPDYFHRFTRRILHEQEQRDFRTRFSLPPPSSGAEKTGLNPITPDMARWLAGRFAAKEAARKAAPAGASSLGWKDVIVRVGEADKGRPEIVYLDPMGCGETGGGRVGKLSISHDGDYVVATVLAAG	not soluble
MDELFEEHLEIAKALFAQRLPYWCDVFLRPADQAFNAYLNARGQASTYLVLEGFDPVYVPRGCDLDAVRATARARARLREAGLGEDALPVLL	not soluble
MGSSHHHHHHGKTIFVIVPTNEEQVAFLEALAKQDELNFDWQNPPTEPGQPVVILIPSDMVEWFLEMLKAKGIPFTVYVEEGGSENLYFQGGGGGGAHSLMRQMMLASVIRFTAVFLGIRRCRGAFVVAPLFVLQPLLQHLQQLITHPLTCLQGGIQWQLHALVEHLVHLQHLPSPRVQLSHVTKKRRAPVRKVVCGRIIHVHRTLLLLKQLRLLGVPGTQRAESSEHGGEPLTAVLVQLDKSIASRSGDNGDGGGRCR	not soluble
GPGSMLPQLLTENLCSLVEAEDRYAFSILWEFDENLNVVRDWFGKTIIRSRGALYYGDAQRMIDNPADTSDIAVSLRELMRLSKHFKAQREEDGALFLASQEFKFKVDNEHVNPTDMQVYQTFEANSMIEEWMLYANAAVATKVYESYPQWTLLRRHEPPAEGAFDTLNDALYSKLRVRLDDTTSLTLNKSLDKCEDPQDPYFNKLIRILTTRCLRQAQYFSSGG	not soluble
TETMTVTATGNARSSFEAPMMVSVIDTSAPENQTATSATDLLRHVPGITLDGTGRTNGQDINMRGYDHRGVLVLVDGIRQGTDTGHLNGTFLDPALIKRVEIVRGPSALLYGSGALGGVISYDTVDAKDLLQEGQSSGFRVFGTGGTGDHSLGLGASAFGRTENLDGIVAWSSRDRGDLRQSNGETAPNDESINNMLAKGTWQIDSAQSLSGLVRYYNNDAREPKNPQTVEASESSNPMVDRSTIQRDAQLSYKLAPQGNDWLNADAKIYWSEVRINAQNTGSSGEYREQITKGARLENRSTLFADSFASHLLTYGGEYYRQEQGSHHHHHHHPGGATTGFPQAKIDFSSGWLQDEITLRDLPITLLGGTRYDSYRGSSDGYKDVDADKWSSRAGMTINPTNWLMLFGSYAQAFRAPTMGEMYNDSKHFSIGRFYTNYWVPNPNLRPETNETQEYGFGLRFDDLMLSNDALEFKASYFDTKAKDYISTTVDFAAATTMSYNVPNAKIWGWDVMTKYTTDLFSLDVAYNRTRGKDTDTGEYISSINPDTVTSTLNIPIAHSGFSVGWVGTFADRSTHISSSYSKQPGYGVNDFYVSYQGQQALKGMTTTLVLGNAFDKEYWSPQGIPQDGRNGKIFVSYQW	soluble
MPVEITVKELLEAGVHFGHERKRWNPKFARYIYAERNGIHIIDLQKTMEELERTFRFIEDLAMRGGTILFVGTKKQAQDIVRMEAERAGMPYVNQRWLGGMLTNFKTISQRVHRLEELEALFASPEIEERPKKEQVRLKHELERLQKYLSGFRLLKRLPDAIFVVDPTKEAIAVREARKLFIPVIALADTDSDPDLVDYIIPGNDDAIRSIQLILSRAVDLIIQARGGVVEPSPSYALVQEAEATETPEGESEVEA	soluble
SLMQALARTGYAGPLSLEIFNDAFRAAPTEATAIDGLRSLIWIEELAEGAAWSEASPPAVGYDGVHFIEFTLDEESAAPLGEFFSALGFRHIGRHRSKNVELWHQGDIHLVLNFETDSFAHTFRLLHGTSVCAVGVRVNDLDSAVTRAAHYKAQWFRGPVGEGEMEIPALRGIEGSLVYLVDDAQAREMQWKTDFHLFEDGQDDDAGLINIDHISYVLPPTQLLSWLLFHRTVFGFDAGPEHEIADPHGMVVSQTVTSPDNSVRIPLTVSSARETLPGRFLSEHQGGVQQIAFASGDIFATIDAMLARGLPMLRIPANYYDDLAARFDLDDALLEAMRSRNILFDRNDDGDFFHAYTETFMGRFFFEVVERRGSYSQFGAVNAPIRLAAQAGQQREG	soluble
MASDMPLVQLPQRGERINVPLVQSRSEDQRLVTSARQTDKIDADDLVALANQLNSARQLVKGRACDRLKQIADQMEQLHMAARAVLEDAQRDEHLHNVPCNMEKQPGRIYHLYQKQGSMNKYFSMLAPNEWGYQEKKEEYLGSYRLEYDRSWTPVGEMDRKDEEVARLQQLLQREGPVALRGNPNF	not soluble
NDPDADRFAVAARKADGEYQMLTGDQVGSLFGHYLLSQTDAHRQLVGNTIVSSSLLSKIAAAHGARYYQTLTGFKWLTNVAMQEQTEQHQFLFAYEEALGYTIGSTVWDKDGLSALVAFAQLAAELNAQGKTVWDQLEALYRQHGLHVN	not soluble
DIQMTQSPSSLSASVGDRVTITCQASQDITNHLNWYQQKPGKAPKLLIYDASNLETGVPSRFSGRGSGTHFTFTISSLQPADIATYYCQEYDYLPQTFGGGTKVEIK	soluble
